Measured values as given in paper PMC9371650 (Proceedings of the National Academy of Sciences of the …, 2022).

B1: 3A5, rabbit anti-EBV gB neutralizing monoclonal antibody (antibody, V domains shown)
VH: QSVKESGGRLVTPGTPLTLTCTVSGFSLSSYEMGWVRQAPGEGLEWIGTISTGGSSYYASWAKGRFTISRTSTTVDLKMTSLTTADTATYFCARGYGGYGIGAGYFNIWGPGTLVTVSS
VL: ALVMTQTPSSVSEPVGGTVTIKCQASQSISSYLAWYQRKPGQRPKLLIYGTSTLASGVPSRFIGSGSGTDYTLTISDLECDDAATYYCQQGFSTSNVYNSFGGGTKVDIK
B2: antigen binding fragment of 3A5 (3A5Fab) (Fab, V domains shown)
VH: QSVKESGGRLVTPGTPLTLTCTVSGFSLSSYEMGWVRQAPGEGLEWIGTISTGGSSYYASWAKGRFTISRTSTTVDLKMTSLTTADTATYFCARGYGGYGIGAGYFNIWGPGTLVTVSS
VL: ALVMTQTPSSVSEPVGGTVTIKCQASQSISSYLAWYQRKPGQRPKLLIYGTSTLASGVPSRFIGSGSGTDYTLTISDLECDDAATYYCQQGFSTSNVYNSFGGGTKVDIK
B3: 3A3, rabbit anti-EBV gB neutralizing monoclonal antibody (antibody, V domains shown)
VH: QSVKESGGRLVTPGTPLTLTCTVSGFSLSSYAMSWVRQAPGKGLEYIGVIYASGSTYYASWAKGRFTISRTATTVDLKITSPTTEDTATYFCGRGVSTNMWGPGTLVTVSS
VL: DLVMTQTPSSVSAAVGGTVTIKCQASQSLGGGLAWYQQKPGQRPKLLIYSASTLESGVPSRFRGSGSGTEFTLTISDLECADAATYYCQSAYGPTSNGLFNAFGGGTKVVIK
B4: antigen binding fragment of 3A3 (3A3Fab) (Fab, V domains shown)
VH: QSVKESGGRLVTPGTPLTLTCTVSGFSLSSYAMSWVRQAPGKGLEYIGVIYASGSTYYASWAKGRFTISRTATTVDLKITSPTTEDTATYFCGRGVSTNMWGPGTLVTVSS
VL: DLVMTQTPSSVSAAVGGTVTIKCQASQSLGGGLAWYQQKPGQRPKLLIYSASTLESGVPSRFRGSGSGTEFTLTISDLECADAATYYCQSAYGPTSNGLFNAFGGGTKVVIK
B5: 1E12 (antibody, V domains shown)
VH: QSVKESGGRLVTPGTPLTLTCTVSGIDLSTYVMTWVRQAPGKGLECIGIIGYGGSTYYASWATGRFTISKTSTTVDLRMTSLTTEDTATYFCARGVSSNLYRGMNLWGQGTLVTVSS
VL: ALVMTQTPSPVSAAVGGTVSISCQSSPSVYSNYLSWYQQKPGQPPKLLIYETSKLESGVPSRFSGSGSGTQFTLTISGVQCDDAATYYCAGGYSGISDTFAFGGGTKVDIK

Assays:
[1] = biological target: ectodomain of glycoprotein B (ect-gB), Epstein-Barr virus (Epstein-Barr virus); experiment: native gel or EMSA
[2] = biological target: virion-encoded gB expressed on EBV-positive Akata cells (Epstein-Barr virus (HHV-4), strain …, UniProt P03188, strain); experiment: cell-based or functional assay
[3] = biological target: T1, ectodomain of glycoprotein B (ect-gB), Epstein-Barr virus (Epstein-Barr virus (HHV-4), strain M81 …); experiment: SPR
T1 chain 1: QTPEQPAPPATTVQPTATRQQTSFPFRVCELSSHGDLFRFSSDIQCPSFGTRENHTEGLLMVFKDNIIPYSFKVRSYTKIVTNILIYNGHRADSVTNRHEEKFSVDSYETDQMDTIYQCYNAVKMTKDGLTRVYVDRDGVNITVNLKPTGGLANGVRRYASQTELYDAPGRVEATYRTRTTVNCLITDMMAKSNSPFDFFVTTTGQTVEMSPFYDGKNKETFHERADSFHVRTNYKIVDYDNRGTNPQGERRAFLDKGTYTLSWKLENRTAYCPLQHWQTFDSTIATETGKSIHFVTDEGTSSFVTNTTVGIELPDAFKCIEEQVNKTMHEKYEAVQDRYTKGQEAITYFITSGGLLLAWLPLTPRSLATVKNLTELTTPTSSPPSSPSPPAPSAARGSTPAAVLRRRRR
T1 chain 2: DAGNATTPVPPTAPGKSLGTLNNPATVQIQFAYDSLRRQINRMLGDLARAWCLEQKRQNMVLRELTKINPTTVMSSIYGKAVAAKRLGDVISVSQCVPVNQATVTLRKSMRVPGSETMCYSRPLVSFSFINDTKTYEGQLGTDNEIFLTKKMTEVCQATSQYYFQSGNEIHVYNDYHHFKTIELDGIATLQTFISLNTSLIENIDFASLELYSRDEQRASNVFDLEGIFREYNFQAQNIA

[4] = biological target: T1, ectodomain of glycoprotein B (ect-gB), …

Row | Molecule | IC50 of neutralization of Akata-EBV infection of HNE1 epithelial cells [2] [µg/mL] | IC50 of neutralization of CNE2-EBV infection of Akata B cells [2] [µg/mL] | Kd [3] [nM] | also measured
1 | ectodomain of glycoprotein B (ect-gB), Epstein-Barr virus (domain or fragment) |  |  |  | stoichiometry N [1]: 3
2 | B1 | 0.31 | 4.9 |  | 
3 | B2 |  |  | ~3.93 | 
4 | B3 | 0.08 | 2.97 |  | 
5 | B4 |  |  | ~3.49 | 
6 | B5 |  |  |  | binding result [4]: binds
